The source of these data is paper PMC3035117 (ChemMedChem, 2010).

Experiment [1] concerns the target T1, HIV-1 YU-2 gp120 (HIV-1 (YU-2), UniProt P35961 32-498). Put plainly: ITC.
The target in experiment [2] is T1, HIV-1 YU-2 gp120. The experiment can be described thus: ELISA. (In general: ELISA stands for enzyme-linked immunosorbent assay.)
Experiment [3] concerns the target T1, HIV-1 YU-2 gp120. Put plainly: ELISA. The source holds these as a separate data set.

Where two headings read alike, the source gives them in different places. Square brackets hold non-standard residues; d marks the D form. Ends that are not written are not given here. Ftp = ferrocenyl-triazole-Pro (made from azidoproline); Cit = NC(=O)NCCC[C@H](N)C(=O)O

The molecule INNI[Ftp]W-NH2 [UM15] had a dH in the experiment with HIV-1 YU-2 gp120 [1] of -16.6 kcal/mol.

Regarding NNI[Ftp]W-NH2 [UM17], the IC50 is 600 ± 50 nM with HIV-1 YU-2 gp120 [2] and 4 ± 0.17 µM with HIV-1 YU-2 gp120 [3]. In addition, the dH in the experiment with HIV-1 YU-2 gp120 [1] was -13.2 kcal/mol.

For the molecule NI[Ftp]WS-NH2 [UM41], in the experiment with HIV-1 YU-2 gp120 [1], the dH was -6.1 kcal/mol.

In the experiment with HIV-1 YU-2 gp120 [1], [Cit]NNI[Ftp]WS [UM24] returned a dH of -16.7 kcal/mol.

As a reminder, the IC50 is the concentration that inhibits the measured activity by half. High values mean weaker potency in that assay, low ones greater potency in that assay.
